{"source": "patent US20200199554A1", "about": "(KATHOLIEKE UNIVERSITEIT LEUVEN, published 2020)", "target": "the molecule itself", "test": "zymogram (SDS-PAGE gel with embedded fish sperm DNA, renatured); self-association, dimer band", "protocol": "In addition, the nuclease activity was confirmed by zymography. […] Then, the gel was washed three times for 5 min in mQ and incubated for 48 h in zymogram renaturation buffer (150 mM NaH₂PO₄ pH 7, 10 mM MgCl₂ and 0.1% Triton X-100), which allowed the proteins to refold to their native state. Finally, the gel was stained for 20 min in 0.5 μg/ml ethidium bromide and destained for 20 min in the zymogram renaturation buffer. After staining with ethidium bromide, the enzymes with nuclease activity were visible as non-fluorescent bands using an UV transilluminator. The impact of boiling on the renaturing capacity of Gp5 was tested by loading both preboiled (10 min, 95° C.) and non-preboiled samples. Clear bands were observed around 8-9 kDa, indicating the nuclease activity of Gp5 (MW=8.5 KDa) (for details see FIG. 4). […] Despite the small fraction of Gp5 that is present as a dimer on the zymogram, this dimer:monomer ratio is not necessarily present in vivo. After all, SDS is an anionic surfactant, negatively charging proteins to allow a separation based on the molecular weight in SDS-PAGE. This step generally involves also the disintegration of dimers into monomers. The removal of SDS in the renaturation step, might allow Gp5 to reassociate into dimers.\nClear bands were observed around 8-9 kDa in all samples, indicating the presence of Gp5. […] The protein concentrations are shown on the top."}
{"protein": "LUZ19_Gp5 (untagged, purified) (enzyme, A few linker residues may remain at the N-terminus; also called Phage LUZ19 gp5; miniDNase) MSSRDPYRIGHRVGLVNYSDRYLGADAAGTKGTIEAITRPSRCMTIYHVRCERTLRLIEAEARNVRFIRQRAER", "values": [{"measurement": "binding result", "value": "binds"}]}
